Assay results published in publication PMC11527256, “Linkage-specific ubiquitin binding interfaces modulate the activity of the chlamydial deubiquitinase Cdu1 towards poly-ubiquitin substrates” (PLOS Pathogens, 2024).

Molecular target: T1, ubiquitin propargylamide (UB-PA) (UniProt P0CG48 1-75, C-terminal propargylamide)
T1 construct: also called ubiquitin-propargylamide suicide probe
Assay: NMR chemical shift perturbation of the covalent adduct against the apo protein
Conditions: both partners purified

B1: Cdu1(130-401), wildtype (enzyme)
chain: PVKTQEDLLPLVPEQVFVEMYEDMARRQTIEALVPAWDSDIIFKCLCYFHTLYPGLIPLETFPPATIFNFKQKIISILEDKKAVLRGEPIKGPLPICCSKENYRRHLQRTTLLPVFMWYHPTPKTLSDTMQTMKQLAIKGSVGASHWLLVIVDIQARRLVYFDSLYNYVMPPENMKKELQSFAQQLDQVYPAYDSKKFSVKIAAKEVIQRGSGSSCGAWCCQFLHWYLKDPLTDALNDLPVDSVERHENLASFVQACEAAVQDLPELSWPEA
notes: source: E. coli Rosetta 2(DE3), purified (Ni-NTA, 3C cleavage, SEC); not shown: 6xHis, N-terminal, cleaved
  binding result: binds
